# Patent publication US11542537B2, “High-purity steviol glycosides” (PureCircle Sdn Bhd, priority 2012, dated 2023)
# B1: UGT91D2: UDP-glucosyltransferase, Genbank ACE87855.1, in-vitro produced (protein, UniProt B3VI56 1-473, looked up)
# UDP-glycosyltransferase 91D2: MATSDSIVDDRKQLHVATFPWLAFGHILPYLQLSKLIAEKGHKVSFLSTTRNIQRLSSHISPLINVVQLTLPRVQELPEDAEATTDVHPEDIPYLKKASDGLQPEVTRFLEQHSPDWIIYDYTHYWLPSIAASLGISRAHFSVTTPWAIAYMGPSADAMINGSDGRTTVEDLTTPPKWFPFPTKVCWRKHDLARLVPYKAPGISDGYRMGLVLKGSDCLLSKCYHEFGTQWLPLLETLHQVPVVPVGLLPPEVPGDEKDETWVSIKKWLDGKQKGSVVYVALGSEVLVSQTEVVELALGLELSGLPFVWAYRKPKGPAKSDSVELPDGFVERTRDRGLVWTSWAPQLRILSHESVCGFLTHCGSGSIVEGLMFGHPLIMLPIFGDQPLNARLLEDKQVGIEIPRNEEDGCLTKESVARSLRSVVVEKEGEIYKANARELSKIYNDTKVEKEYVSQFVDYLEKNTRAVAIDHES
# modifications: in vitro produced
# notes: UDP-glucosyltransferase, Genbank ACE87855.1, in-vitro produced
# B2: S115N05 A7: UGTSL, Solanum lycopersicum glycosyltransferase, SEQ ID 5; S129N04 is the sample of the in-vivo produced enzyme (protein, listed as Solanum lycopersicum)
# chain: MSPKLHKELFFHSLYKKTRSNHTMATLKVLMFPFLAYGHISPYLNVAKKLADRGFLIYFCSTPINLKSTIEKIPEKYADSIHLIELHLPELPQLPPHYHTTNGLPPNLNQVLQKALKMSKPNFSKILQNLKPDLVIYDILQRWAKHVANEQNIPAVKLLTSGAAVFSYFFNVLKKPGVEFPFPGIYLRKIEQVRLSEMMSKSDKEKELEDDDDDDDLLVDGNMQIMLMSTSRTIEAKYIDFCTALTNWKVVPVGPPVQDLITNDVDDMELIDWLGTKDENSTVFVSFGSEYFLSKEDMEEVAFALELSNVNFIWVARFPKGEERNLEDALPKGFLERIGERGRVLDKFAPQPRILNHPSTGGFISHCGWNSAMESIDFGVPIIAMPMHLDQPMNARLIVELGVAVEIVRDDDGKIHRGEIAETLKGVITGKTGEKLRAKVRDISKNLKTIRDEEMDAAAEELIQLCRNGN
# B3: UGT76G1: UDP-glucosyltransferase of Stevia rebaudiana, Genbank AAR06912.1, produced in E. coli or in vitro (protein, UniProt Q6VAB4 1-458, looked up)
# UDP-glycosyltransferase 76G1: MENKTETTVRRRRRIILFPVPFQGHINPILQLANVLYSKGFSITIFHTNFNKPKTSNYPHFTFRFILDNDPQDERISNLPTHGPLAGMRIPIINEHGADELRRELELLMLASEEDEEVSCLITDALWYFAQSVADSLNLRRLVLMTSSLFNFHAHVSLPQFDELGYLDPDDKTRLEEQASGFPMLKVKDIKSAYSNWQILKEILGKMIKQTKASSGVIWNSFKELEESELETVIREIPAPSFLIPLPKHLTASSSSLLDHDRTVFQWLDQQPPSSVLYVSFGSTSEVDEKDFLEIARGLVDSKQSFLWVVRPGFVKGSTWVEPLPDGFLGERGRIVKWVPQQEVLAHGAIGAFWTHSGWNSTLESVCEGVPMIFSDFGLDQPLNARYMSDVLKVGVYLENGWERGEIANAIRRVMVDEEGEYIRQNARVLKQKADVSLMKGGSSYESLESLVSYISSL
# Tests used:
# Format in all cases: biochemical
# [1] = Catalytic reaction with in-vitro produced UGT91D2, Rebaudioside A to Rebaudioside D; conditions: in-vitro produced UGT91D2, 0.1 mM Rebaudioside A, after 120 h
# Procedure: The total volume of the reaction was 0.5 mL with the following composition: 50 mM sodium phosphate buffer pH 7.2, 3 mM MgCl2, 3.8 mM UDP-glucose, 0.1 mM Rebaudioside A and 180 μL of in-vitro produced UGT91D2. The reactions were run at 30° C. on an orbitary shaker at 135 rpm. For each sample, 450 μL of reaction mixture was quenched with 45 μL of 2N H2SO4 and 405 μL of 60% MeOH. After centrifugation, the supernatant was analyzed by HPLC (CAD). HPLC indicated a 4.7% conversion of rebaudioside A to rebaudioside D after 120 h.
# [2] = LCMS of Rubusoside conversion products with UGTSL, UGTSL2, UGTLB; conditions: UGTSL2 2 hrs, UGTLB 5 hrs, UGTSL 45 hrs
# Procedure: (§1) Conversion of stevioside with UGTSL and UGTSL2 was conducted in similar manner to Example 28, and the conversion of rubusoside with UGTSL and UGTSL2 was conducted similarly to Example 29. Conversions of rubusoside and stevioside with UGTLB was conducted similarly to Example 32.
# (§2) The reaction mixtures were analyzed by LCMS to determine all reaction products.
# [3] = Activity for Rubusoside to Rebaudioside E conversion (UGTSL, UGTSL2, UGTLB lysates); conditions: based on initial concentration of Rubusoside; reaction time 45 h. (UGTSL), 2 h. (UGTSL2)
# Procedure: Activity tests were performed at 3 mL scale with 600 μL of lysate for the transformation of Rubusoside using 0.5 mM of substrate, 2.5 mM of UDP-Glucose and 3 mM MgCl2 in 50 mM Sodium Phosphate buffer at pH 7.2. The HPLC assay was performed as described in EXAMPLE 20.
# Activity tests were performed at 3 mL scale with 600 μL of lysate for the transformation of Rubusoside using 0.5 mM of substrate, 2.5 mM of UDP-Glucose and 3 mM MgCl2 in 50 mM Sodium Phosphate buffer at pH 7.2. Samples were taken and analyzed by HPLC. The corresponding chromatogram is depicted in FIG. 65.
# [4] = LC-MS of Rebaudioside A reaction mixtures of GI No. 460409128 (Example 23); conditions: for Steviol glycoside conversion in reaction mixture: Reb A: remaining substrate
# Procedure: The reaction mixtures representing GI No. 460409128, particularly the sample “12400 S115N05A7 T24h 130627ABA” of EXAMPLE 20 (hereinafter S115N05A7), and the sample “12400 S129N04 T45h 130712ABA” of EXAMPLE 22 (hereinafter S129N04) were additionally assayed by LC-MS to identify the unknown glycosides. An Agilent 1200 series HPLC system, equipped with binary pump (G1312B), autosampler (G1367D), thermostatted column compartment (G1316B), DAD detector (G1315C), connected with Agilent 6110A MSD, and interfaced with “LC/MSD Chemstation” software, was used.
# [5] = LCMS of Stevioside conversion products with UGTSL, UGTSL2, UGTLB; conditions: UGTSL2 2 hrs, UGTLB 2 hrs, UGTSL 22 hrs
# Procedure: as §1, §2
# [6] = Catalytic test of in-vitro expressed UDP-glucosyltransferases, Rebaudioside A to Rebaudioside D (HPLC CAD); conditions: 0.5 mM Rebaudioside A, 30° C., T24h sample
# Procedure: 18 μL of plasmid solution (containing approximately 1.5 μg of plasmid) was used for in-vitro expression according to the Promega S30 T7 High-Yield Protein Expression System (ref: L1110) kit. The expression medium was produced as follows:
# The prepared expression medium mix was added to the plasmid solution and the solution was allowed to incubate at 30° C. for 3 hours while mixing the mixture every 45 minutes. 5 μL of the mixture was frozen whereas the remainder was used for the catalytic test for the conversion of Rebaudioside A to Rebaudioside D.
# (§3) 430 μL of a reaction mixture containing 0.5 mM Rebaudioside A, 3 mM MgCl2, 50 mM phosphate buffer (pH7.2) and 2.5 mM UDP-glucose was added to a 1.5 mL sterile microtube. 52 μL of the enzyme expression medium was added and the resulting mixture was allowed to react at 30° C. for 24 hours. 125 μL samples were taken after 2 hours, 16 hours and 24 hours and added to a 115 μL of 60% methanol and 10 μL of 2 N H2SO4. The quenched sample was centrifuged at 18,000 g for 2 minutes at RT. 200 μL was transferred to an HPLC vial and analyzed.
# The HPLC assay was performed as follows:
# as §3, with “RT.” for “RT. 200 μL was transferred to an HPLC vial and analyzed.”
# The HPLC assay was performed as described in EXAMPLE 20.
# [7] = UGT76G1 lysate activity test, Stevioside to Rebaudioside A (HPLC); conditions: in-vivo produced UGT76G1 thawed lysate, 0.5 mM Stevioside, 30° C.
# Procedure: The total volume of the reaction was 5.0 mL with the following composition: 50 mM sodium phosphate buffer pH 7.2, 3 mM MgCl2, 2.5 mM UDP-glucose, 0.5 mM Stevioside and 500 μL of UGT76G1 thawed lysate. The reactions were run at 30° C. on an orbitary shaker at 135 rpm. For each sample, 460 μL of the reaction mixture was quenched with 40 μL of 2N H2SO4 and 420 μL of methanol/water (6/4). The samples were immediately centrifuged and kept at 10° C. before analysis by HPLC (CAD).
# (§4) Activity tests were performed on a 5 mL scale with 500 μL of thawed lysate for the transformation of Stevioside to Rebaudioside A and Rebaudioside D to Rebaudioside M using 0.5 mM of substrate, 2.5 mM of UDP-Glucose and 3 mM MgCl2 in 50 mM Sodium Phosphate buffer at pH 7.2. Samples were taken and analyzed by HPLC.
# [8] = UGT76G1 activity test, Rebaudioside D to Rebaudioside M (HPLC); conditions: in-vitro produced UGT76G1, 0.5 mM Rebaudioside D, after 120 h
# Procedure: The total volume of the reaction was 2 mL with the following composition: 50 mM sodium phosphate buffer pH 7.2, 3 mM MgCl2, 3.8 mM UDP-glucose, 0.5 mM Rebaudioside D and 180 μL of in-vitro produced UGT76G1. The reactions were run at 30° C. on an orbitary shaker at 135 rpm. For each sample, 400 μL of reaction mixture was quenched with 40 μL of 2N H2SO4 and 360 μL of 60% MeOH. After centrifugation, the supernatant was analyzed by HPLC (CAD).
# as §4
# 5 mL of the lysate of Example 12 was used to transform Rebaudioside D to Rebaudioside M on a 50 mL scale. The reaction medium consisted of 50 mM Sodium Phosphate buffer pH 7.2, 3 mM of MgCl2, 2.5 mM of UDP-Glucose and 0.5 mM of Rebaudioside D. After allowing the reaction to be shaken at 30° C. for 90 h. 50 mL of ethanol was added and the resulting mixture was allowed to stir at −20° C. for 1 h. After centrifugation at 5000 g for 10 min. the supernatant was purified via ultrafiltration (Vivaflow MWCO 30000). […]
# [9] = Conversion of Rebaudioside E to Rebaudioside D with UGT76G1 lysate; conditions: 500 μL UGT76G1 thawed lysate, 0.5 mM Rebaudioside E, 30° C., pH 7.5
# Procedure: The total volume of the reaction was 5.0 mL with the following composition: 100 mM potassium phosphate buffer pH 7.5, 3 mM MgCl2, 2.5 mM UDP-glucose, 0.5 mM Rebaudioside E and 500 μL of UGT76G1 thawed lysate (UGT76G1 gene was cloned in pET30a+ vector and expressed in E. coli BL21 (DE3)). The reactions were run at 30° C. on an orbitary shaker at 135 rpm. For sampling 300 μL of the reaction mixture was quenched with 30 μL of 2N H2SO4 and 270 μL of methanol/water (6/4). The samples were immediately centrifuged and kept at 10° C. before analysis by HPLC (CAD detection).
molecule,measurement,setting,value
B1,conversion of rebaudioside A to rebaudioside D (HPLC),[1],4.7%
B2,"LC-MS, peak area ratio (%) Reb D",[2],3.45%
same,"LC-MS, peak area ratio (%) Reb E",[2],35.88%
same,"LC-MS, peak area ratio (%) Rub",[2],7.82%
same,"LC-MS, peak area ratio (%) Stev",[2],2.37%
same,"LC-MS, peak area ratio (%) Unknown peak #1 (MW804) RT 30.70 min",[2],20.38%
same,"LC-MS, peak area ratio (%) Unknown peak #2 (MW804) RT 49.50 min",[2],27.75%
same,"LC-MS, peak area ratio (%) Unknown peak #3 (MW804) RT 50.40 min",[2],2.35%
same,Rubusoside conv. (reactiontime),[3],70% (45 h.)
same,Steviol glycoside conversion in reaction mixture: Reb UNK,"[4]; Reb UNK later identified as reb D2, listed as S115N05A7",19.93 % area
same,Steviol glycoside conversion in reaction mixture: Reb UNK,"[4]; Reb UNK later identified as reb D2, listed as S129N04",21.22 % area
same,Steviol glycoside conversion in reaction mixture: Reb D,[4]; listed as S115N05A7,20.35 % area
same,Steviol glycoside conversion in reaction mixture: Reb D,[4]; listed as S129N04,23.73 % area
same,Steviol glycoside conversion in reaction mixture: Reb A,[4]; listed as S115N05A7,53.24 % area
same,Steviol glycoside conversion in reaction mixture: Reb A,[4]; listed as S129N04,49.00 % area
same,Steviol glycoside conversion in reaction mixture: Unknown@RT3.5,"[4]; unknown later identified as reb M2, listed as S115N05A7",6.47 % area
same,Steviol glycoside conversion in reaction mixture: Unknown@RT3.5,"[4]; unknown later identified as reb M2, listed as S129N04",6.05 % area
same,"LC-MS, peak area ratio (%) Reb D",[5],0.54%
same,"LC-MS, peak area ratio (%) Reb E",[5],49.68%
same,"LC-MS, peak area ratio (%) Stev",[5],25.24%
same,"LC-MS, peak area ratio (%) Unknown peak #1 (MW966) RT = 22.60 min",[5],3.97%
same,"LC-MS, peak area ratio (%) Unknown peak #2 (MW966) RT = 26.50 min",[5],20.56%
same,Steviol glycoside conversion in reaction mixture: Reb UNK,[6]; Reb UNK later identified as reb D2,23.3 % area
same,Steviol glycoside conversion in reaction mixture: Reb A,[6]; remaining substrate,46.7 % area
B3,conversion of stevioside to rebaudioside A (HPLC),[7],almost complete conversion
same,conversion of rebaudioside D to rebaudioside M (HPLC),[8],80%
same,conversion of Rebaudioside E to Rebaudioside D (reaction profile),[9],complete conversion
